For the assay, the target named is Aspergillus sydowii UBOCC-A-108050 SULT (Aspergillus sydowii UBOCC-A-108050). As to the kind of experiment: SEC; calibrated size exclusion chromatography of the purified recombinant protein alone (self-association).

With “Aspergillus sydowii UBOCC-A-108050 SULT (enzyme)”, the stoichiometry N is 2.

(Values after PMC11677658.)
